B1: Ubiquitin-conjugating enzyme E2 E3 (Homo sapiens), Q969T4 (parent)
chain: MSSDRQRSDDESPSTSSGSSDADQRDPAAPEPEEQEERKPSATQQKKNTKLSSKTTAKLSTSAKRIQKELAEITLDPPPNCSAGPKGDNIYEWRSTILGPPGSVYEGGVFFLDITFSSDYPFKPPKVTFRTRIYHCNINSQGVICLDILKDNWSPALTISKVLLSICSLLTDCNPADPLVGSIATQYLTNRAEHDRIARQWTKRYAT
partner: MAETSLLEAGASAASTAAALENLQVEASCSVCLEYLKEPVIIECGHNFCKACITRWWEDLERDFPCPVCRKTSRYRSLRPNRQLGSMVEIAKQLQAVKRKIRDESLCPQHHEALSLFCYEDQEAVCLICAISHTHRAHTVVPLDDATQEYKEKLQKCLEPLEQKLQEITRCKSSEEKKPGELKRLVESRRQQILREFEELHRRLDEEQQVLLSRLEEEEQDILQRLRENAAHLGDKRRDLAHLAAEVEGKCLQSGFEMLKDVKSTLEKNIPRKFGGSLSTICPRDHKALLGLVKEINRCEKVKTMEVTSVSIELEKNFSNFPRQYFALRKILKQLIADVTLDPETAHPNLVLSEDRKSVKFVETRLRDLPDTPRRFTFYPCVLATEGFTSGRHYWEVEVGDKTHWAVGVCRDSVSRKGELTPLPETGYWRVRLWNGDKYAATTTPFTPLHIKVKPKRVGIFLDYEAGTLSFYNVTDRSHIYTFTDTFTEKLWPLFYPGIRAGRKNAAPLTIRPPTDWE
B2: Protein sprouty homolog 1 (Homo sapiens), O43609 (parent)
chain: MDPQNQHGSGSSLVVIQQPSLDSRQRLDYEREIQPTAILSLDQIKAIRGSNEYTEGPSVVKRPAPRTAPRQEKHERTHEIIPINVNNNYEHRHTSHLGHAVLPSNARGPILSRSTSTGSAASSGSNSSASSEQGLLGRSPPTRPVPGHRSERAIRTQPKQLIVDDLKGSLKEDLTQHKFICEQCGKCKCGECTAPRTLPSCLACNRQCLCSAESMVEYGTCMCLVKGIFYHCSNDDEGDSYSDNPCSCSQSHCCSRYLCMGAMSLFLPCLLCYPPAKGCLKLCRRCYDWIHRPGCRCKNSNTVYCKLESCPSRGQGKPS
partner: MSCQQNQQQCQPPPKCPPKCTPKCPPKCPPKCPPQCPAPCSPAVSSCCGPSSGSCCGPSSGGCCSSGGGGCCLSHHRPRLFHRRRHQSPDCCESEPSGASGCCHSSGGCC
B3: Notch homolog 2 N-terminal-like protein A (Homo sapiens), Q7Z3S9 (parent)
chain: MCVTYHNGTGYCKCPEGFLGEYCQHRDPCEKNRCQNGGTCVAQAMLGKATCRCASGFTGEDCQYSTSHPCFVSRPCLNGGTCHMLSRDTYECTCQVGFTGKECQWTDACLSHPCANGSTCTTVANQFSCKCLTGFTGQKCETDVNECDIPGHCQHGGTCLNLPGSYQCQCLQGFTGQYCDSLYVPCAPSPCVNGGTCRQTGDFTFECNCLPETVRRGTELWERDREVWNGKEHDEN
partner: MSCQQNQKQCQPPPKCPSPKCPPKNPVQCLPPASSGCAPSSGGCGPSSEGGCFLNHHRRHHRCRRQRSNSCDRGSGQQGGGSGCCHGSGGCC
B4: Tetraspanin-5 (Homo sapiens), P62079 (parent)
chain: MSGKHYKGPEVSCCIKYFIFGFNVIFWFLGITFLGIGLWAWNEKGVLSNISSITDLGGFDPVWLFLVVGGVMFILGFAGCIGALRENTFLLKFFSVFLGIIFFLELTAGVLAFVFKDWIKDQLYFFINNNIRAYRDDIDLQNLIDFTQEYWQCCGAFGADDWNLNIYFNCTDSNASRERCGVPFSCCTKDPAEDVINTQCGYDARQKPEVDQQIVIYTKGCVPQFEKWLQDNLTIVAGIFIGIALLQIFGICLAQNLVSDIEAVRASW
partner: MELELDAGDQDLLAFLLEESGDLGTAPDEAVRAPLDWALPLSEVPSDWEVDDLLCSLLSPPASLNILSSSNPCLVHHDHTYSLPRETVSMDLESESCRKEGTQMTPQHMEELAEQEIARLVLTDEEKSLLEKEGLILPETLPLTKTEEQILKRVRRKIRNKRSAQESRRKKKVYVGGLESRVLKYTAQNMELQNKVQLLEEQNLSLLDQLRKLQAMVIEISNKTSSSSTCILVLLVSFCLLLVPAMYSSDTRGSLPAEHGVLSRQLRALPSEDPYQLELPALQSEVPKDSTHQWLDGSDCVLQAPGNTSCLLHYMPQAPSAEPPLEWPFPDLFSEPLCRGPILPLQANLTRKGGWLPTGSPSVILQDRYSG
B5: "Peptide-N(4)-(N-acetyl-beta-glucosaminyl)asparagine amidase" (Homo sapiens), Q96IV0 (parent)
chain: MAAAALGSSSGSASPAVAELCQNTPETFLEASKLLLTYADNILRNPNDEKYRSIRIGNTAFSTRLLPVRGAVECLFEMGFEEGETHLIFPKKASVEQLQKIRDLIAIERSSRLDGSNKSHKVKSSQQPAASTQLPTTPSSNPSGLNQHTRNRQGQSSDPPSASTVAADSAILEVLQSNIQHVLVYENPALQEKALACIPVQELKRKSQEKLSRARKLDKGINISDEDFLLLELLHWFKEEFFHWVNNVLCSKCGGQTRSRDRSLLPSDDELKWGAKEVEDHYCDACQFSNRFPRYNNPEKLLETRCGRCGEWANCFTLCCRAVGFEARYVWDYTDHVWTEVYSPSQQRWLHCDACEDVCDKPLLYEIGWGKKLSYVIAFSKDEVVDVTWRYSCKHEEVIARRTKVKEALLRDTINGLNKQRQLFLSENRRKELLQRIIVELVEFISPKTPKPGELGGRISGSVAWRVARGEMGLQRKETLFIPCENEKISKQLHLCYNIVKDRYVRVSNNNQTISGWENGVWKMESIFRKVETDWHMVYLARKEGSSFAYISWKFECGSVGLKVDSISIRTSSQTFQTGTVEWKLRSDTAQVELTGDNSLHSYADFSGATEVILEAELSRGDGDVAWQHTQLFRQSLNDHEENCLEIIIKFSDL
partner: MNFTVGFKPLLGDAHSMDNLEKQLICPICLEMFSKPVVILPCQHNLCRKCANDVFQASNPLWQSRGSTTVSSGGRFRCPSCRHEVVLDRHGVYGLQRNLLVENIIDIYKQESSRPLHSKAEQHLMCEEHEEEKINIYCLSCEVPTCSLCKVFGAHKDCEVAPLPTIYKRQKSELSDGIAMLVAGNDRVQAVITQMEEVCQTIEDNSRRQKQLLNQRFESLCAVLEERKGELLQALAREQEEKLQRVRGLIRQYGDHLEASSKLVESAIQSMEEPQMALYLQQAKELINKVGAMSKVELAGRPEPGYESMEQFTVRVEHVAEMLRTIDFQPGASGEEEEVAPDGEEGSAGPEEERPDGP
B6: Prelamin-A/C (Homo sapiens), P02545 (parent)
chain: METPSQRRATRSGAQASSTPLSPTRITRLQEKEDLQELNDRLAVYIDRVRSLETENAGLRLRITESEEVVSREVSGIKAAYEAELGDARKTLDSVAKERARLQLELSKVREEFKELKARNTKKEGDLIAAQARLKDLEALLNSKEAALSTALSEKRTLEGELHDLRGQVAKLEAALGEAKKQLQDEMLRRVDAENRLQTMKEELDFQKNIYSEELRETKRRHETRLVEIDNGKQREFESRLADALQELRAQHEDQVEQYKKELEKTYSAKLDNARQSAERNSNLVGAAHEELQQSRIRIDSLSAQLSQLQKQLAAKEAKLRDLEDSLARERDTSRRLLAEKEREMAEMRARMQQQLDEYQELLDIKLALDMEIHAYRKLLEGEEERLRLSPSPTSQRSRGRASSHSSQTQGGGSVTKKRKLESTESRSSFSQHARTSGRVAVEEVDEEGKFVRLRNKSNEDQSMGNWQIKRQNGDDPLLTYRFPPKFTLKAGQVVTIWAAGAGATHSPPTDLVWKAQNTWGCGNSLRTALINSTGEEVAMRKLVRSVTVVEDDEDEDGDDLLHHHHGSHCSSSGDPAEYNLRSRTVLCGTCGQPADKASASGSGAQVGGPISSGSSASSVTVTRSYRSVGGSGGGSFGDNLVTRSYLLGNSSPRTQSPQNCSIM
partner: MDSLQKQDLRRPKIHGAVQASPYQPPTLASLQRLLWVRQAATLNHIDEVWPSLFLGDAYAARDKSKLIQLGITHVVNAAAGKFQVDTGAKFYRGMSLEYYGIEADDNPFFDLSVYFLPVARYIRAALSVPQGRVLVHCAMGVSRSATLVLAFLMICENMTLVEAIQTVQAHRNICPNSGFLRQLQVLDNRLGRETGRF
B7: E3 ubiquitin-protein ligase CHIP (Homo sapiens), Q9UNE7 (parent)
chain: MKGKEEKEGGARLGAGGGSPEKSPSAQELKEQGNRLFVGRKYPEAAACYGRAITRNPLVAVYYTNRALCYLKMQQHEQALADCRRALELDGQSVKAHFFLGQCQLEMESYDEAIANLQRAYSLAKEQRLNFGDDIPSALRIAKKKRWNSIEERRIHQESELHSYLSRLIAAERERELEECQRNHEGDEDDSHVRAQQACIEAKHDKYMADMDELFSQVDEKRKKRDIPDYLCGKISFELMREPCITPSGITYDRKDIEEHLQRVGHFDPVTRSPLTQEQLIPNLAMKEVIDAFISENGWVEDY

Variants of: B1
Details: with tri39_human TRIM39, Q9HCM9

| Variant | effect of a mutation on the interaction |
| --- | --- |
| S117T | with no effect |

Variants of: B2
Details: with lce2d_human LCE2D

| Variant | effect of a mutation on the interaction |
| --- | --- |
| A37T | with no effect |
| R24H | with no effect |
| R296K | with no effect |

Variants of: B3
Details: with lce3e_human LCE3E

| Variant | effect of a mutation on the interaction |
| --- | --- |
| R74Q | with no effect |
| A115T | with no effect |

Variants of: B4
Details: with creb3_human CREB3, O43889

| Variant | effect of a mutation on the interaction |
| --- | --- |
| T218M | with no effect |

Variants of: B5
Details: with tri54_human TRIM54, Q9BYV2

| Variant | effect of a mutation on the interaction |
| --- | --- |
| V184F | with no effect |
| F292L | with no effect |

Variants of: B6
Details: with ds13b_human DUSP13B

| Variant | effect of a mutation on the interaction |
| --- | --- |
| I299V | with no effect |

Variants of: B7
Details: with noe3_human OLFM3, Q96PB7
Sequence of noe3_human OLFM3, Q96PB7 (Q96PB7 whole entry): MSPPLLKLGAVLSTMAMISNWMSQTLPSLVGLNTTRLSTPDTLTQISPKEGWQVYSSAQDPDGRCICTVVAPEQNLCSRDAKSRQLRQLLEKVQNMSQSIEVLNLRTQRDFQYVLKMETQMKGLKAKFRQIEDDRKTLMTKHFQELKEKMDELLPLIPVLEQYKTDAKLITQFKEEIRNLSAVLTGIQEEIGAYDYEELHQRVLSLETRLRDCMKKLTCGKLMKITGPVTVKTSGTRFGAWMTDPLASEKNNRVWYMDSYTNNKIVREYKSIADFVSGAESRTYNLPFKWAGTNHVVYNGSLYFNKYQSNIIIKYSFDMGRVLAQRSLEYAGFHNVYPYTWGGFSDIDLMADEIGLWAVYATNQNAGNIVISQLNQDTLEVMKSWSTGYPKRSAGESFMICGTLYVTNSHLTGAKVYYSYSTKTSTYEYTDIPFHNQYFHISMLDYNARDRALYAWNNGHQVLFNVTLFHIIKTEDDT

| Variant | effect of a mutation on the interaction |
| --- | --- |
| Q181H | with no effect |
